Publication PMC4871718 (Nature chemical biology, 2016)

T1: CIB1-CreC (UniProt Q8GY61)
T1 sequence (Q8GY61 whole entry, looked up): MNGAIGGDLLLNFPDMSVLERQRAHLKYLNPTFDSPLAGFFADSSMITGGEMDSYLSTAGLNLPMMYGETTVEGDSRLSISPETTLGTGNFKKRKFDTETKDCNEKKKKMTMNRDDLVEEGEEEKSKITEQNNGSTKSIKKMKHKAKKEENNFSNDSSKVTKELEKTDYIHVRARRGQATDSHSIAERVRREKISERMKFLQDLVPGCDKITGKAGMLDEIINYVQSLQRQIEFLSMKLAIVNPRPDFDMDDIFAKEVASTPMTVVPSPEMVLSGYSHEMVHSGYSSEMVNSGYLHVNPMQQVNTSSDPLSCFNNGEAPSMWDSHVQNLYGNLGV


Assays:
[1] = target: T1, CIB1-CreC
[2] = target: LexABD-CRY2(535) (Arabidopsis thaliana, UniProt Q96524 1-535); assay: two-hybrid

Molecule	Cre recombination with extended 24 hour illumination [1]	fold reduction in dark activity against LexABD-CRY2PHR [2]
CRY2(L348F)-CreN (from UniProt Q96524 1-612; P06956 1-104)	> 50%	
VP16-CIB1 (natural protein, UniProt Q8GY61 1-335, looked up) MNGAIGGDLLLNFPDMSVLERQRAHLKYLNPTFDSPLAGFFADSSMITGGEMDSYLSTAGLNLPMMYGETTVEGDSRLSISPETTLGTGNFKKRKFDTETKDCNEKKKKMTMNRDDLVEEGEEEKSKITEQNNGSTKSIKKMKHKAKKEENNFSNDSSKVTKELEKTDYIHVRARRGQATDSHSIAERVRREKISERMKFLQDLVPGCDKITGKAGMLDEIINYVQSLQRQIEFLSMKLAIVNPRPDFDMDDIFAKEVASTPMTVVPSPEMVLSGYSHEMVHSGYSSEMVNSGYLHVNPMQQVNTSSDPLSCFNNGEAPSMWDSHVQNLYGNLGV		26 fold
